Reference: IntAct's records for PubMed 29039417

B1: BBSome complex member BBS5 (Homo sapiens), Q8N3I7 (parent)
chain: MSVLDALWEDRDVRFDLSAQQMKTRPGEVLIDCLDSIEDTKGNNGDRGRLLVTNLRILWHSLALSRVNVSVGYNCILNITTRTANSKLRGQTEALYILTKCNSTRFEFIFTNLVPGSPRLFTSVMAVHRAYETSKMYRDFKLRSALIQNKQLRLLPQEHVYDKINGVWNLSSDQGNLGTFFITNVRIVWHANMNDSFNVSIPYLQIRSIKIRDSKFGLALVIESSQQSGGYVLGFKIDPVEKLQESVKEINSLHKVYSASPIFGVDYEMEEKPQPLEALTVEQIQDDVEIDSDGHTDAFVAYFADGNKQQDREPVFSEELGLAIEKLKDGFTLQGLWEVMS
partner: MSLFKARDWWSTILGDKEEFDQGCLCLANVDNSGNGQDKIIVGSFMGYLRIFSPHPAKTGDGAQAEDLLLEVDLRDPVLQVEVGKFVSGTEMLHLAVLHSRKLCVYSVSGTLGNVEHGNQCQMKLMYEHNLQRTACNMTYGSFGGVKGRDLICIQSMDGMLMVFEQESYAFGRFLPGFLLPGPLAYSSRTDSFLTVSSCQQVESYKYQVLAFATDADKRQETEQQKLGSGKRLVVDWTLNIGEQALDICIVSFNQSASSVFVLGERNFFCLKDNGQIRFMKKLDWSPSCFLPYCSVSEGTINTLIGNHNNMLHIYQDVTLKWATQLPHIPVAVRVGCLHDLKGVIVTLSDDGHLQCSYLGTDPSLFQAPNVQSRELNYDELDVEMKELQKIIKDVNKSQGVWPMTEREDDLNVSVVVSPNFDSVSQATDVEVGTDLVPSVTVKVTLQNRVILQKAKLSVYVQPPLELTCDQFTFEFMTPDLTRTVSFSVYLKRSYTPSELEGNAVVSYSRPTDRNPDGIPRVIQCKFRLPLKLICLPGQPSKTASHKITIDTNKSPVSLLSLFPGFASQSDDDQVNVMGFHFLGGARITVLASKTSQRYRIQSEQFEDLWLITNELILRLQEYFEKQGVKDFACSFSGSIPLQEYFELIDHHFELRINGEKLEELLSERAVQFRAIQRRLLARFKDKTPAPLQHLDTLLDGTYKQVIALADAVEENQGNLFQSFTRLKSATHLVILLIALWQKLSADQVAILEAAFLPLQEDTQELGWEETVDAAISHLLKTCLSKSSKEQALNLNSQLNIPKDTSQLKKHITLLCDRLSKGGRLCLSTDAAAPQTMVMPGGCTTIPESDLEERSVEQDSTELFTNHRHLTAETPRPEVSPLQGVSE

Variants of: B1
Settings: with pthb1_human BBS9, Q3SYG4

Effect of a mutation on the interaction, with no effect:
MSVLDALWEDRDVRFDLSAQQMKTRPGEVLIDCLDSIEDTKGNNGDRGRLLVTNLRILWHSLALSRVNVSVGYNCILNITTRTANSKLRGQTEALYILTKCNSTRFEFIFTNLVPGSPRLFTSVMAVHRAYETSKMYRDFKLRSALIQNKQLRLLPQEHVYDKINGVWNLSSDQGNLGTFFITNVRIVWHANMNDSFNVSIPYLQIRSIKIRDSKFGLALVIESSQQSGGYVLGFKIDPVEKLQESVKEKNSLHKVYSASPIFGVDYEMEEKPQPLEALTVEQIQDDVEIDSDGHTDAFVAYFADGNKQQDREPVFSEELGLAIEKLKDGFTLQGLWEVMS [I250K]
MSVLDALWEDRDVRFDLSAQQMKTRPGEVLIDCLDSIEDTKGNNGDRGRLLVTNLRILWHSLALSRVNVSVGYNCILNITTRTANSKLRGQTEALYILTKCNSTRFEFIFTNLVPGSPRLFTSVMAVHRAYETSKMYRDFKLRSALIQNKQLRLLPQEHVYDKINGVWNLSSDQGNLGTFFITNVRIVWHANMNDSFNVSIPYLQIRSIKIRDSKFGLALVIESSQQSGGYVLGFKIDPVEKLQESVKEENSLHKVYSASPIFGVDYEMEEKPQPLEALTVEQIQDDVEIDSDGHTDAFVAYFADGNKQQDREPVFSEELGLAIEKLKDGFTLQGLWEVMS [I250E]
MSVLDALWEDRDVRFDLSAQQMKTRPGEVLIDCLDSIEDTKGNNGDRGRLLVTNLRILWHSLALSRVNVSVGYNCILNITTRTANSKLRGQTEALYILTKCNSTRFEFIFTNLVPGSPRLFTSVMAVHRAYETSKMYRDFKLRSALIQNKQLRLLPQEHVYDKINGVWNLSSDQGNLGTFFITNVRIVWHANMNDSFNVSIPYLQIRSIKIRDSKFGLALVIESSQQSGGYVLGFKIDPVEKLQESVKEANSLHKVYSASPIFGVDYEMEEKPQPLEALTVEQIQDDVEIDSDGHTDAFVAYFADGNKQQDREPVFSEELGLAIEKLKDGFTLQGLWEVMS [I250A]
MSVLDALWEDRDVRFDLSAQQMKTRPGEVLIDCLDSIEDTKGNNGDRGRLLVTNLRILWHSLALSRVNVSVGYNCILNITTRTANSKLRGQTEALYILTKCNSTRFEFIFTNLVPGSPRLFTSVMAVHRAYETSKMYRDFKLRSALIQNKQLRLLPQEHVYDKINGVWNLSSDQGNLGTFFITNVRIVWHANMNDSFNVSIPYLQIRSIKIRDSKFGLALVIESSQQSGGYVLGFKIDPVEKLQESVEEINSLHKVYSASPIFGVDYEMEEKPQPLEALTVEQIQDDVEIDSDGHTDAFVAYFADGNKQQDREPVFSEELGLAIEKLKDGFTLQGLWEVMS [K248E]
MSVLDALWEDRDVRFDLSAQQMKTRPGEVLIDCLDSIEDTKGNNGDRGRLLVTNLRILWHSLALSRVNVSVGYNCILNITTRTANSKLRGQTEALYILTKCNSTRFEFIFTNLVPGSPRLFTSVMAVHRAYETSKMYRDFKLRSALIQNKQLRLLPQEHVYDKINGVWNLSSDQGNLGTFFITNVRIVWHANMNDSFNVSIPYLQIRSIKIRDSKFGLALVIESSQQSGGYVLGFKIDPVEKLQESVAEINSLHKVYSASPIFGVDYEMEEKPQPLEALTVEQIQDDVEIDSDGHTDAFVAYFADGNKQQDREPVFSEELGLAIEKLKDGFTLQGLWEVMS [K248A]
MSVLDALWEDRDVRFDLSAQQMKTRPGEVLIDCLDSIEDTKGNNGDRGRLLVTNLRILWHSLALSRVNVSVGYNCILNITTRTANSKLRGQTEALYILTKCNSTRFEFIFTNLVPGSPRLFTSVMAVHRAYETSKMYRDFKLRSALIQNKQLRLLPQEHVYDKINGVWNLSSDQGNLGTFFITNVRIVWHANMNDSFNVSIPYLQIRSIKIRDSKFGLALVIESSQQSGGYVLGFKIDPVEKLQESKKEINSLHKVYSASPIFGVDYEMEEKPQPLEALTVEQIQDDVEIDSDGHTDAFVAYFADGNKQQDREPVFSEELGLAIEKLKDGFTLQGLWEVMS [V247K]
MSVLDALWEDRDVRFDLSAQQMKTRPGEVLIDCLDSIEDTKGNNGDRGRLLVTNLRILWHSLALSRVNVSVGYNCILNITTRTANSKLRGQTEALYILTKCNSTRFEFIFTNLVPGSPRLFTSVMAVHRAYETSKMYRDFKLRSALIQNKQLRLLPQEHVYDKINGVWNLSSDQGNLGTFFITNVRIVWHANMNDSFNVSIPYLQIRSIKIRDSKFGLALVIESSQQSGGYVLGFKIDPVEKLQESVKEIASLHKVYSASPIFGVDYEMEEKPQPLEALTVEQIQDDVEIDSDGHTDAFVAYFADGNKQQDREPVFSEELGLAIEKLKDGFTLQGLWEVMS [N251A]
MSVLDALWEDRDVRFDLSAQQMKTRPGEVLIDCLDSIEDTKGNNGDRGRLLVTNLRILWHSLALSRVNVSVGYNCILNITTRTANSKLRGQTEALYILTKCNSTRFEFIFTNLVPGSPRLFTSVMAVHRAYETSKMYRDFKLRSALIQNKQLRLLPQEHVYDKINGVWNLSSDQGNLGTFFITNVRIVWHANMNDSFNVSIPYLQIRSIKIRDSKFGLALVIESSQQSGGYVLGFKIDPVEKLQESVKKINSLHKVYSASPIFGVDYEMEEKPQPLEALTVEQIQDDVEIDSDGHTDAFVAYFADGNKQQDREPVFSEELGLAIEKLKDGFTLQGLWEVMS [E249K]
MSVLDALWEDRDVRFDLSAQQMKTRPGEVLIDCLDSIEDTKGNNGDRGRLLVTNLRILWHSLALSRVNVSVGYNCILNITTRTANSKLRGQTEALYILTKCNSTRFEFIFTNLVPGSPRLFTSVMAVHRAYETSKMYRDFKLRSALIQNKQLRLLPQEHVYDKINGVWNLSSDQGNLGTFFITNVRIVWHANMNDSFNVSIPYLQIRSIKIRDSKFGLALVIESSQQSGGYVLGFKIDPVEKLQESVKAINSLHKVYSASPIFGVDYEMEEKPQPLEALTVEQIQDDVEIDSDGHTDAFVAYFADGNKQQDREPVFSEELGLAIEKLKDGFTLQGLWEVMS [E249A]
